According to paper PMC5374410, “Identification of a Potent Allosteric Inhibitor of Human Protein Kinase CK2 by Bacterial Surface Display Library Screening” (Pharmaceuticals, 2017):

Biological target: CK2β^1–193-pAzF coupled to fluorescein (human) (UniProt P67870)
Test: MST; B2 titrated (7.6 nM to 125 or 250 µM) to 100 nM fluorophore-labelled CK2α-DBCO-Sulfo-Cy5 or CK2β^1-193-Flu; 50 mM Tris/HCl pH 7.5, 25 mM NaCl, 20 mM MgCl2, Tween-20, DMSO; 37 °C, MST power 60%; Monolith NT.115; three independent measurements

B1: peptide B2 (free synthetic peptide) (peptide)
peptide: DCRGLIVMIKLH
Kd: > 100 µM
